Results from US20130034585A1 (BOARD OF SUPERVISORS OF LOUISIANA STATE UNIVERSITY AND …, published 2013).
Positions count from the first letter of the chain named.

B1: BHV-1 UL49.5 30AAA32 CT-null (other)
chain: DPLLDAMAAAGAMDFWSAGCYARGVPLSEPPQALVVFYVALTAVMVAVALYAYGLCF
B2: BHV-1 UL49.5 CT-null (other)
chain: B1 chain with A8R, A9R, A10E
B3: BHV-1 UL49.5Δ30-32 CT-null (other)
chain: DPLLDAMGAMDFWSAGCYARGVPLSEPPQALVVFYVALTAVMVAVALYAYGLCF
B4: BHV-1 UL49.5Δ30-32 (other)
chain: DPLLDAMGAMDFWSAGCYARGVPLSEPPQALVVFYVALTAVMVAVALYAYGLCFRLMGASGPNKKESRGRG
B5: BHV-1 wt UL49.5 (glycoprotein N) (other)
chain: DPLLDAMRREGAMDFWSAGCYARGVPLSEPPQALVVFYVALTAVMVAVALYAYGLCFRLMGASGPNKKESRGRG
B6: BHV-1 UL49.5 30AAA32 (other)
chain: B5 chain with R8A, R9A, E10A

These binders were tested against bovine TAP1 (bovine) (assay: cell-based or functional assay).
In the case of B1, the “MHC-I surface expression on infected MDBK cells (FACS)” value (“MHC-I surface expression … (FACS)” below) is reported as 89.1%, the “MHC-I surface expression relative to BHV-1 wt-infected MDBK cells” value is reported as 2.5 fold and the “inhibition of TAP-mediated peptide transport in infected MDBK cells at 8 hpi (FITC peptide, FACS)” value (“inhibition” for short) is reported as 10%. The “peptide transport at 8 hpi relative to BHV-1 wt-infected MDBK cells” value was ~6 fold.
In the case of B2, the “MHC-I surface expression … (FACS)” value is reported as 49.6%, the “MHC-I surface expression relative to BHV-1 wt-infected MDBK cells” value is reported as 1.3 fold and the “inhibition” value is reported as 63%. For the same binder, the “peptide transport at 8 hpi relative to BHV-1 wt-infected MDBK cells” value was 2.5 fold.
In the case of B3, the “MHC-I surface expression … (FACS)” value is reported as 88.6%, the “MHC-I surface expression relative to BHV-1 wt-infected MDBK cells” value is reported as 2.5 fold and the “inhibition” value is reported as 7%. For the same binder, the “peptide transport at 8 hpi relative to BHV-1 wt-infected MDBK cells” value was ~6 fold.
B4 was tested, and the “MHC-I surface expression … (FACS)” value was 74.3%, the “MHC-I surface expression relative to BHV-1 wt-infected MDBK cells” value was 2 fold and the “inhibition” value was 23%. For the same binder, the “peptide transport at 8 hpi relative to BHV-1 wt-infected MDBK cells” value was 4 fold.
With B5 the “MHC-I surface expression … (FACS)” value was 36.2% and the “inhibition” value was 84%.
B6 was tested, and the “MHC-I surface expression … (FACS)” value was 75%, the “MHC-I surface expression relative to BHV-1 wt-infected MDBK cells” value was 2 fold and the “inhibition” value was 27%. For the same binder, the “peptide transport at 8 hpi relative to BHV-1 wt-infected MDBK cells” value was 4 fold.
